# From PMC6692446, “Characterization of H/D exchange in type 1 pili by proton-detected solid-state NMR and molecular dynamics simulations” (Journal of Biomolecular Nmr, 2019)
# Target: the molecule itself
# Assay: H/D exchange followed by proton-detected solid-state NMR; pre-assembled reprotonated pili washed four times with 100% D2O buffer (10 mM sodium phosphate pH 7.0, 0.02% sodium azide), each with 4 h at room temperature; peak volumes of 3D (H)CANH spectra of redeuterated and reprotonated pili compared; 40 kHz MAS, 16.4 T, 17 °C; protection assigned to intra- or intermolecular contacts on the cryo-EM structure PDB 5OH0
protein,measurement,value
"FimA, type 1 pilus rod subunit (recombinant, assembled in vitro into type 1 pili) (natural protein, Escherichia coli, UniProt P04128 24-182, looked up, FimA, major subunit of the type 1 pilus rod of Escherichia coli; Uniformly [2H,13C,15N]-labelled, proton back-exchanged at labile sites; Intramolecular disulfide Cys21-Cys61; In the pilus each subunit's N-terminal donor strand complements the neighbouring subunit; also called polymerized FimA; reprotonated pili) AATTVNGGTVHFKGEVVNAACAVDAGSVDQTVQLGQVRTASLAQEGATSSAVGFNIQLNDCDTNVASKAAVAFLGTAIDAGHTNVLALQSSAAGSATNVGVQILDRTGAALTLDGATFSSETTLNNGTNTIPFQARYFATGAATPGAANADATFKVQYQ",binding result,binds
